Read-outs that look alike come from different tables or passages of the source.

One assay deals with T1, 4H967-bN.
T1 chain: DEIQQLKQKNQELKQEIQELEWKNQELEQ
In words: two-hybrid library CCNG1.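 Also: natural log of median RNA to DNA barcode read ratio; higher means stronger binding.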

The target in a further assay is T2, 4H968-bN.
T2 chain: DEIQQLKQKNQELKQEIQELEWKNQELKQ
In words: two-hybrid library CCNG1.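 Also: natural log of median RNA to DNA barcode read ratio; higher means stronger binding.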

Another assay deals with T3, O14-bA.
T3 chain: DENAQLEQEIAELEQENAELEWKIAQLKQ
In words: two-hybrid library CCNG1.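 Also: natural log of median RNA to DNA barcode read ratio; higher means stronger binding.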

In the next assay the target is T4, 4H953-bN.
T4 chain: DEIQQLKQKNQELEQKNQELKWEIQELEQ
In words: two-hybrid library CCNG1.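 Also: natural log of median RNA to DNA barcode read ratio; higher means stronger binding.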

The target of the next assay is T5, 4H918-bN.
T5 chain: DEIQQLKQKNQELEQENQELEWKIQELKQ
In words: two-hybrid library CCNG1.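 Also: natural log of median RNA to DNA barcode read ratio; higher means stronger binding.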

The target in a further assay is T6, 4H2518-bH.
T6 chain: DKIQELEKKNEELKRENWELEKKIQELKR
In words: two-hybrid library CCNG1.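 Also: natural log of median RNA to DNA barcode read ratio; higher means stronger binding.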

Another assay addresses T7, 4H3041-bH.
T7 chain: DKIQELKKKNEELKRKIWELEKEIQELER
In words: two-hybrid library CCNG1.

In the next assay the target is T8, 4H56-bH.
T8 chain: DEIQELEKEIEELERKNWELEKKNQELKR
In words: two-hybrid library CCNG1.

For a further assay, the target named is T9, 4H2859-bH.
T9 chain: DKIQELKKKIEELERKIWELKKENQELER
In words: two-hybrid library CCNG1.

A further assay deals with T10, 4H932-bH.
T10 chain: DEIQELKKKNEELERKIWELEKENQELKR
In words: two-hybrid library CCNG1.

The next assay addresses T11, 4H3381-bH.
T11 chain: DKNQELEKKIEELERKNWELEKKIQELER
In words: two-hybrid library CCNG1.

The target of the next assay is T12, 4H349-bH.
T12 chain: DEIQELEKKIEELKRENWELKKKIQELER
In words: two-hybrid library CCNG1.

The next assay concerns the target T13, 4H796-bH.
T13 chain: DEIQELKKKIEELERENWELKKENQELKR
In words: two-hybrid library CCNG1.

The target of the next assay is T14, 4H730-bH.
T14 chain: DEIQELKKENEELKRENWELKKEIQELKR
In words: two-hybrid library CCNG1.

A further assay addresses T15, 4H2760-bH.
T15 chain: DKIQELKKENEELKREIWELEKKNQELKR
In words: two-hybrid library CCNG1.

The target of the next assay is T16, 4H2931-bH.
T16 chain: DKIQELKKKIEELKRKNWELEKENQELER
In words: two-hybrid library CCNG1.

The target of another assay is T17, 4H3297-bH.
T17 chain: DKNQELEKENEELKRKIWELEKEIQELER
In words: two-hybrid library CCNG1.

In the next assay the target is T18, 4H949-bH.
T18 chain: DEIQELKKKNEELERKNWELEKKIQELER
In words: two-hybrid library CCNG1.

A further assay deals with T19, 4H2585-bH.
T19 chain: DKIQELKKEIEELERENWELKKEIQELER
In words: two-hybrid library CCNG1.

A further assay addresses T20, 4H717-bA.
T20 chain: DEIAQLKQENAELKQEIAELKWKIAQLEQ
In words: two-hybrid library CCNG1.

For a further assay, the target named is T21, 4H3974-bA.
T21 chain: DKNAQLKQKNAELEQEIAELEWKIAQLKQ
In words: two-hybrid library CCNG1.

In another assay the target is T22, 4H3364-bH.
T22 chain: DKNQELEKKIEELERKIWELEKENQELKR
In words: two-hybrid library CCNG1.

The target in the next assay is T23, 4H584-bH.
T23 chain: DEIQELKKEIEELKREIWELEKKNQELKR
In words: two-hybrid library CCNG1.

Another assay has as its target T24, 4H264-bH.
T24 chain: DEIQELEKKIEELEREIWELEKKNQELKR
In words: two-hybrid library CCNG1.

A further assay addresses T25, P5A-bP.
T25 chain: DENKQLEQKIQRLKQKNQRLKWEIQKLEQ
In words: two-hybrid library CCNG1.

The target in another assay is T26, P9A-bP.
T26 chain: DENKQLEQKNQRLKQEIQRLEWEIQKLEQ
In words: two-hybrid library CCNG1.

In another assay the target is T27, P7A-bP.
T27 chain: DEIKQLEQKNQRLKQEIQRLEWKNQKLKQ
In words: two-hybrid library CCNG1.

A further assay deals with T28, P6A-bP.
T28 chain: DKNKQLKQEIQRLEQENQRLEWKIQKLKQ
In words: two-hybrid library CCNG1.

The target of another assay is T29, P8A-bP.
T29 chain: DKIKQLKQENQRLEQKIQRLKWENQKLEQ
In words: two-hybrid library CCNG1.

Another assay deals with T30, O8-AA.
T30 chain: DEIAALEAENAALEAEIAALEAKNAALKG
In words: two-hybrid library CCmax. The settings on record: mean of both orientations.

The target in a further assay is T31, O5-AA.
T31 chain: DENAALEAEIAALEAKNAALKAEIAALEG
In words: two-hybrid library CCmax. To be noted: mean of both orientations.

The next assay deals with T32, O3-AA.
T32 chain: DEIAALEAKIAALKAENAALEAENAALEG
In words: two-hybrid library CCmax. To be noted: mean of both orientations.

The target of a further assay is T33, P10-AA.
T33 chain: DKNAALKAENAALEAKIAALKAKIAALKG
In words: two-hybrid library CCmax. The settings on record: mean of both orientations.

A further assay has as its target T34, O4-AA.
T34 chain: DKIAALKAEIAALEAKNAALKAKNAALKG
In words: two-hybrid library CCmax. To be noted: mean of both orientations.

The next assay addresses T35, P9-AA.
T35 chain: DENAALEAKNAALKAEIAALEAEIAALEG
In words: two-hybrid library CCmax. To be noted: mean of both orientations.

A further assay deals with T36, O7-AA.
T36 chain: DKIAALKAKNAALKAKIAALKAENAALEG
In words: two-hybrid library CCmax. To be noted: mean of both orientations.

The next assay has as its target T37, O14-AA.
T37 chain: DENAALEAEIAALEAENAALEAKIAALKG
In words: two-hybrid library CCmax.

The next assay deals with T38, O6-AA.
T38 chain: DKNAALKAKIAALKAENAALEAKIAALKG
In words: two-hybrid library CCmax. The settings on record: mean of both orientations.

The next assay addresses T39, O2-AA.
T39 chain: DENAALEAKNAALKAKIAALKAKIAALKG
In words: two-hybrid library CCmax.

In another assay the target is T40, O13-AA.
T40 chain: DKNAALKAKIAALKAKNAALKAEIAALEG
In words: two-hybrid library CCmax.

In a further assay the target is T41, O11-AA.
T41 chain: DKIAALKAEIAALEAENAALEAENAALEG
In words: two-hybrid library CCmax.

The target of another assay is T42, 4H754-bA.
T42 chain: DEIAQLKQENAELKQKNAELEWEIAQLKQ
In words: two-hybrid library CCNG1.

The next assay concerns the target T43, 4H953-bA.
T43 chain: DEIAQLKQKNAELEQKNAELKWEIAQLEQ
In words: two-hybrid library CCNG1.

The next assay has as its target T44, 4H968-bA.
T44 chain: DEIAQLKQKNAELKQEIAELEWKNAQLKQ
In words: two-hybrid library CCNG1.

A further assay addresses T45, 4H855-bA.
T45 chain: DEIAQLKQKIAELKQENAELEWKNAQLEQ
In words: two-hybrid library CCNG1.

A further assay has as its target T46, 4H683-bA.
T46 chain: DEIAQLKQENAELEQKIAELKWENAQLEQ
In words: two-hybrid library CCNG1.

The next assay has as its target T47, 4H457-bA.
T47 chain: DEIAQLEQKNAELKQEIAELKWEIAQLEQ
In words: two-hybrid library CCNG1.

A further assay has as its target T48, 4H780-bA.
T48 chain: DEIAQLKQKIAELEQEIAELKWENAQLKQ
In words: two-hybrid library CCNG1.

Another assay has as its target T49, 4H797-bA.
T49 chain: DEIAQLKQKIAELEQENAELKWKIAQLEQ
In words: two-hybrid library CCNG1.

In a further assay the target is T50, 4H575-bA.
T50 chain: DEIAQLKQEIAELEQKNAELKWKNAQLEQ
In words: two-hybrid library CCNG1.

For another assay, the target named is T51, 4H918-bA.
T51 chain: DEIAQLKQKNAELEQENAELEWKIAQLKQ
In words: two-hybrid library CCNG1.

Another assay deals with T52, P6bHq.
T52 chain: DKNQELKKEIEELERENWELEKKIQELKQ
In words: two-hybrid library CCNG1.

The target of another assay is T53, P7A-bS.
T53 chain: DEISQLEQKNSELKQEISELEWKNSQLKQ
In words: two-hybrid library CCNG1.

The target in another assay is T54, P6A-bS.
T54 chain: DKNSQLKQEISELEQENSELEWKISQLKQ
In words: two-hybrid library CCNG1.

The target in another assay is T55, P5A-bS.
T55 chain: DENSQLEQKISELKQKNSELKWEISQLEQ
In words: two-hybrid library CCNG1.

In the next assay the target is T56, P8A-bS.
T56 chain: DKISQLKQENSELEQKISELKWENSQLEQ
In words: two-hybrid library CCNG1.

In another assay the target is T57, P9A-bS.
T57 chain: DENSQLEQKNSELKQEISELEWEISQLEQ
In words: two-hybrid library CCNG1.

Regarding DEIQQLKQKNQELEQENQELEWKIQELKQ [4H918-bN], the interaction score with 4H967-bN was -0.522; with 4H968-bN, -0.218; in the assay with O14-bA, -0.665; in the assay with 4H953-bN it was 0.301; with 4H918-bN, -0.715.

As for DKIQELEKKNEELKRENWELEKKIQELKR [4H2518-bH], the interaction score in the assay with 4H2518-bH is 1; in the assay with 4H3041-bH it was 0.765; with 4H56-bH, -1.35; in the assay with 4H2859-bH it was -0.0624; with 4H932-bH, 0.604; in the assay with 4H3381-bH, 0.567. In addition, the interaction score is -1.75 in the assay with 4H349-bH; 0.388 with 4H796-bH; 0.0916 in the assay with 4H730-bH; -0.186 in the assay with 4H2760-bH; -0.584 with 4H2931-bH; 0.251 with 4H3297-bH. Besides, the interaction score was 0.12 in the assay with 4H949-bH; 0.0674 in the assay with 4H2585-bH; -0.768 in the assay with 4H717-bA; 0.345 in the assay with 4H3974-bA; 0.178 with 4H3364-bH; 0.647 with 4H584-bH. In the assay with 4H264-bH, this molecule registered an interaction score of -1.77.

On to DENKQLEQKIQRLKQKNQRLKWEIQKLEQ [P5A-bP], for which the interaction score with P5A-bP is -1.57; with P9A-bP, -1.44; with P7A-bP, -1.06; in the assay with P6A-bP, 1.7; with P8A-bP it was -0.516.

Consider DENAALEAEIAALEAENAALEAKIAALKG [O14-AA], for which the interaction score with O8-AA is -0.992; with O5-AA, 1.3; with O3-AA, -1.47; with P10-AA it was -0.458; with O4-AA it was -0.13; with P9-AA, -1.61. The interaction score in the assay with O7-AA is 1.84; with O14-AA, -1.46; with O6-AA, 1.44; with O2-AA (mean of both orientations) it was 0.393.

On to DKIAALKAEIAALEAENAALEAENAALEG [O11-AA], for which the interaction score in the assay with O8-AA is -1.67; with O5-AA, -1.47; with O3-AA it was -0.899; in the assay with P10-AA, -0.539; with O4-AA, 1.9; with P9-AA, -1.22. Besides, the interaction score was -0.673 with O7-AA; -1.2 with O14-AA (mean of both orientations); -0.7 in the assay with O6-AA; -1.08 with O13-AA (mean of both orientations); -0.752 with O11-AA; -0.959 in the assay with O2-AA (mean of both orientations).

On to DKNAALKAKIAALKAKNAALKAEIAALEG [O13-AA], for which the interaction score with O8-AA was 1.18; with O5-AA, -0.257; with O3-AA, -1.86; with P10-AA, -1.54; with O4-AA it was -1.61; with P9-AA, -1.16. The interaction score with O7-AA is -1.54; in the assay with O14-AA (mean of both orientations), 2.19; with O6-AA, 1.5; in the assay with O13-AA it was -1.69; in the assay with O2-AA (mean of both orientations), -1.56.

With DENAALEAKNAALKAKIAALKAKIAALKG [O2-AA], the interaction score with O8-AA is 0.633; in the assay with O5-AA, -1.37; with O3-AA, -1.26; with P10-AA, 1.33; with O4-AA, -1.55; with P9-AA it was 0.934. Further, the interaction score is -1.5 with O7-AA, -1.77 with O6-AA and -1.61 with O2-AA.

Turning to DEIAQLEQKNAELKQEIAELKWEIAQLEQ [4H457-bA], the interaction score with 4H754-bA is -1.54; with 4H953-bA, -0.948; with 4H968-bA, 0.0968; with O14-bA it was -0.0398; with 4H855-bA, -1.04; with 4H683-bA it was 0.308. In addition, the interaction score with 4H457-bA is -0.968; with 4H780-bA it was -1.18; with 4H797-bA, -1.25; with 4H575-bA, -1.69; with 4H918-bA, -0.845.

On to DENSQLEQKISELKQKNSELKWEISQLEQ [P5A-bS], for which the interaction score with P6bHq was 1.33; with P7A-bS, -1.3; with P6A-bS, 0.815; with P5A-bS, -0.799; in the assay with P8A-bS it was -1.1; with P9A-bS, -0.973.
